Laboratory results: publication PMC1543650
pIC50: −log10 of the molar value.

Assays:
[1] = target: Fc-gp120 ΔV1V2 (HIV-1 JR-CSF); test: flow cytometry on cells
[2] = target: Fc-gp120 ΔV3 (HIV-1 JR-CSF); test: flow cytometry on cells
[3] = target: Fc-gp120 ΔV1V2V3 (HIV-1 JR-CSF); test: flow cytometry on cells
[4] = target: Fc-gp120 WT (human IgG1 Fc fused N-terminal to full-length wild-type gp120 of HIV-1 JR-CSF) (HIV-1 JR-CSF); test: flow cytometry on cells
[5] = target: Fc-DC-SIGN (entire ectodomain of DC-SIGN fused in-frame with the Fc region of IgG1) (UniProt Q9NNX6); test: ELISA
UniProt Q9NNX6, sequence (Q9NNX6 59-404): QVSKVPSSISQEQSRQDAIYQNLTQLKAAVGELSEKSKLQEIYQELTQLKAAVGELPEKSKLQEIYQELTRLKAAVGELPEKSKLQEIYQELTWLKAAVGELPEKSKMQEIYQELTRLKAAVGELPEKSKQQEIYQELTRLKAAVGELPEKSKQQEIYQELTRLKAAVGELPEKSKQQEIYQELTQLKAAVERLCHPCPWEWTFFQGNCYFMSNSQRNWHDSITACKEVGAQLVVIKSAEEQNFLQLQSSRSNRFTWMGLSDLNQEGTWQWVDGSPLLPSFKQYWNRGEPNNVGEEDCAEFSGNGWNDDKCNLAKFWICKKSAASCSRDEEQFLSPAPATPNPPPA

| Substance | % inhibition of Fc-gp120 binding to CEM cells at 10 μg/ml sCD4 [1] | % inhibition of Fc-gp120 binding to CEM cells at 10 μg/ml sCD4 [2] | % inhibition of Fc-gp120 binding to CEM cells at 10 μg/ml sCD4 [3] | % inhibition of Fc-gp120 binding to CEM cells at 10 μg/ml sCD4 [4] | pIC50 [5] |
| --- | --- | --- | --- | --- | --- |
| 4-domain recombinant soluble CD4 (domain or fragment) | 100% | 100% | 50% | 100% | – |
| biotinylated Fc-gp120 (Fc fusion) | – | – | – | – | 10.77 |
